From patent publication US20190314526A1

How the values were obtained:
Assay in all cases: cell-based or functional assay
[1] = target: AAV-2 capsid mutant D357E (rAAV-2 virion) (AAV-2) (UniProt P03135)
[2] = target: AAV-2 capsid mutant D357N (rAAV-2 virion) (AAV-2) (UniProt P03135)
[3] = target: AAV-2 capsid mutant E411A/T413A/G449A/N450A (rAAV-2 virion) (AAV-2) (UniProt P03135)
[4] = target: AAV-2 capsid mutant E411A/T413A/G449A/N450A/N568A/V571A (rAAV-2 virion) (AAV-2) (UniProt P03135)
[5] = target: AAV-2 capsid mutant E418A (rAAV-2 virion) (AAV-2) (UniProt P03135)
[6] = target: AAV-2 capsid mutant E437A (rAAV-2 virion) (AAV-2) (UniProt P03135)
[7] = target: AAV-2 capsid mutant F396A (rAAV-2 virion) (AAV-2) (UniProt P03135)
[8] = target: AAV-2 capsid mutant G128A (rAAV-2 virion) (AAV-2) (UniProt P03135)
[9] = target: AAV-2 capsid mutant G375P (rAAV-2 virion) (AAV-2) (UniProt P03135)
[10] = target: AAV-2 capsid mutant G449A (rAAV-2 virion) (AAV-2) (UniProt P03135)
[11] = target: AAV-2 capsid mutant G449A/N568A (rAAV-2 virion) (AAV-2) (UniProt P03135)
[12] = target: AAV-2 capsid mutant K569A (rAAV-2 virion) (AAV-2) (UniProt P03135)
[13] = target: AAV-2 capsid mutant N133A (rAAV-2 virion) (AAV-2) (UniProt P03135)
[14] = target: AAV-2 capsid mutant N360H/S361A (rAAV-2 virion) (AAV-2) (UniProt P03135)
[15] = target: AAV-2 capsid mutant N450A (rAAV-2 virion) (AAV-2) (UniProt P03135)
[16] = target: AAV-2 capsid mutant N568A (rAAV-2 virion) (AAV-2) (UniProt P03135)
[17] = target: AAV-2 capsid mutant Q438A (rAAV-2 virion) (AAV-2) (UniProt P03135)
[18] = target: AAV-2 capsid mutant Q452A (rAAV-2 virion) (AAV-2) (UniProt P03135)
[19] = target: AAV-2 capsid mutant R334A (rAAV-2 virion) (AAV-2) (UniProt P03135)
[20] = target: AAV-2 capsid mutant R334A/G449A (rAAV-2 virion) (AAV-2) (UniProt P03135)
[21] = target: AAV-2 capsid mutant R334A/G449A/N568A (rAAV-2 virion) (AAV-2) (UniProt P03135)
[22] = target: AAV-2 capsid mutant R334A/N568A (rAAV-2 virion) (AAV-2) (UniProt P03135)
[23] = target: AAV-2 capsid mutant R448K (rAAV-2 virion) (AAV-2) (UniProt P03135)
[24] = target: AAV-2 capsid mutant S127A (rAAV-2 virion) (AAV-2) (UniProt P03135)
[25] = target: AAV-2 capsid mutant S130A (rAAV-2 virion) (AAV-2) (UniProt P03135)
[26] = target: AAV-2 capsid mutant S130T (rAAV-2 virion) (AAV-2) (UniProt P03135)
[27] = target: AAV-2 capsid mutant T354A (rAAV-2 virion) (AAV-2) (UniProt P03135)
[28] = target: AAV-2 capsid mutant T413K (rAAV-2 virion) (AAV-2) (UniProt P03135)
[29] = target: AAV-2 capsid mutant V571K (rAAV-2 virion) (AAV-2) (UniProt P03135)
[30] = target: AAV-2 capsid mutant W365A (rAAV-2 virion) (AAV-2) (UniProt P03135)

Q: How did the Fold decrease in neutralizing titer [1] turn out when “purified human IgG from >10,000 donors (Panglobulin, ZLB Bioplasma AG)” was run?
A: Its Fold decrease in neutralizing titer is 1.7 fold.

Q: And the Fold decrease in neutralizing titer [2]?
A: The Fold decrease in neutralizing titer was 1.8 fold.

Q: And the Fold decrease in neutralizing titer [3]?
A: Its Fold decrease in neutralizing titer is 1 fold.

Q: What about the Fold decrease in neutralizing titer [4] of the same substance?
A: The Fold decrease in neutralizing titer was 1.3 fold.

Q: What about the Fold decrease in neutralizing titer [5] of the same substance?
A: The Fold decrease in neutralizing titer was 1.5 fold.

Q: What about the Fold decrease in neutralizing titer [6] of the same substance?
A: The Fold decrease in neutralizing titer was 2 fold.

Q: What about the Fold decrease in neutralizing titer [7] of the same substance?
A: Its Fold decrease in neutralizing titer is 1.6 fold.

Q: What about the Fold decrease in neutralizing titer [8] of the same substance?
A: The Fold decrease in neutralizing titer was 4.1 fold.

Q: And the Fold decrease in neutralizing titer [9]?
A: The Fold decrease in neutralizing titer was 1.9 fold.

Q: And the Fold decrease in neutralizing titer [10]?
A: Its Fold decrease in neutralizing titer is 2.5 fold.

Q: What about the Fold decrease in neutralizing titer [11] of the same substance?
A: Its Fold decrease in neutralizing titer is 1.7 fold.

Q: And the Fold decrease in neutralizing titer [12]?
A: The Fold decrease in neutralizing titer was 4 fold.

Q: And the Fold decrease in neutralizing titer [13]?
A: The Fold decrease in neutralizing titer was 0.9 fold.

Q: And the Fold decrease in neutralizing titer [14]?
A: The Fold decrease in neutralizing titer was 2.1 fold.

Q: And the Fold decrease in neutralizing titer [15]?
A: Its Fold decrease in neutralizing titer is 1.6 fold.

Q: And the Fold decrease in neutralizing titer [16]?
A: Its Fold decrease in neutralizing titer is 2 fold.

Q: What about the Fold decrease in neutralizing titer [17] of the same substance?
A: Its Fold decrease in neutralizing titer is 1.3 fold.

Q: What about the Fold decrease in neutralizing titer [18] of the same substance?
A: Its Fold decrease in neutralizing titer is 1.3 fold.

Q: And the Fold decrease in neutralizing titer [19]?
A: Its Fold decrease in neutralizing titer is 2.2 fold.

Q: And the Fold decrease in neutralizing titer [20]?
A: Its Fold decrease in neutralizing titer is 3.9 fold.

Q: And the Fold decrease in neutralizing titer [21]?
A: Its Fold decrease in neutralizing titer is 3 fold.

Q: And the Fold decrease in neutralizing titer [22]?
A: The Fold decrease in neutralizing titer was 2.4 fold.

Q: And the Fold decrease in neutralizing titer [23]?
A: The Fold decrease in neutralizing titer was 1 fold.

Q: What about the Fold decrease in neutralizing titer [24] of the same substance?
A: The Fold decrease in neutralizing titer was 2.2 fold.

Q: What about the Fold decrease in neutralizing titer [25] of the same substance?
A: Its Fold decrease in neutralizing titer is 1.4 fold.

Q: What about the Fold decrease in neutralizing titer [26] of the same substance?
A: Its Fold decrease in neutralizing titer is 1.8 fold.

Q: What about the Fold decrease in neutralizing titer [27] of the same substance?
A: Its Fold decrease in neutralizing titer is 2.9 fold.

Q: What about the Fold decrease in neutralizing titer [28] of the same substance?
A: Its Fold decrease in neutralizing titer is 2.6 fold.

Q: What about the Fold decrease in neutralizing titer [29] of the same substance?
A: The Fold decrease in neutralizing titer was 1 fold.

Q: What about the Fold decrease in neutralizing titer [30] of the same substance?
A: The Fold decrease in neutralizing titer was 10.4 fold.
